Source: the supplement of paper PMC10126150
± gives the standard deviation of the averaged measurements.

Test system: ATP
Assay: switch fluorescence ratio, 500 uM ATP over buffer (Cy3 cluster intensity, sum of 5 cycles each) (fold (ratio)); higher = stronger signal-on switching upon ATP binding; sequences stand for … in TCGTCGGCAGCGTCAGATGTGTATAAGAGACAGTTTTTTTTTTTTTTTTTTTTTTTTT…TC
Conditions: aptamer strand: ATP DNA aptamer (quencher-CACCTGGGGGAGTATTGCGGAGGAAGG + anchor), 100 nM annealed; ATP concentration: 500 uM
Method in brief: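 For every switch-domain sequence, the fluorescence ratio is the mean of per-cluster values, each being summed target-cycle Cy3 intensity over summed buffer-cycle Cy3 intensity. Clusters outside 100-1000 RFU were excluded. On a modified Illumina MiSeq flow-cell, the Cy3-labelled switching-strand clusters were annealed to 100 nM quencher-labelled ATP aptamer, imaged in selection buffer and then after 15 min with 500 uM ATP at 22 °C. Five such cycles were run, with NaOH stripping and re-annealing between them.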
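Further: ATP exposure 15 min at 22 °C before imaging.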

Row | Sequence | switch fluorescence ratio
1 | TTTTCCGGGT | 1.02 ± 0.032
2 | TTTTCCGTAT | 1.18 ± 0.025
3 | TTTTCCTATG | 0.977 ± 0.019
4 | TTTTCCTCCC | 1.28 ± 0.24
5 | TTTTCCTCGC | 2.86 ± 0.27
6 | TTTTCCTGAT | 1 ± 0.017
7 | TTTTCCTTCT | 1.09 ± 0.089
8 | TTTTCCTTTC | 1.206 ± 0.011
9 | TTTTCGAAAT | 1.01 ± 0.024
10 | TTTTCGAATA | 1.009 ± 0.005
11 | TTTTCGATTA | 0.987 ± 0.016
12 | TTTTCGCTGG | 1.01 ± 0.049
13 | TTTTCGCTTA | 1.01 ± 0.03
14 | TTTTCGGACG | 1.03 ± 0.05
15 | TTTTCGGATG | 1.02 ± 0.028
16 | TTTTCGGCTT | 0.965 ± 0.031
17 | TTTTCGGGCA | 0.99223 ± 4.3e-05
18 | TTTTCGGTGG | 1.05 ± 0.019
19 | TTTTCGGTTA | 1.01 ± 0.015
20 | TTTTCTAAGG | 0.989 ± 0.085
21 | TTTTCTATTG | 1 ± 0.044
22 | TTTTCTATTT | 0.998 ± 0.018
23 | TTTTCTCGCT | 0.967 ± 0.02

Row | Sequence | switch fluorescence ratio
24 | TTTTCTCTGT | 0.967 ± 0.023
25 | TTTTCTCTTC | 0.9808 ± 0.0054
26 | TTTTCTGACG | 1.03 ± 0.02
27 | TTTTCTGCGT | 1.02 ± 0.043
28 | TTTTCTGTTC | 0.988 ± 0.044
29 | TTTTCTTGCC | 1.09 ± 0.11
30 | TTTTCTTTTA | 1.001 ± 0.0032
31 | TTTTGAAACT | 0.9733 ± 0.0091
32 | TTTTGAAAGG | 0.976 ± 0.01
33 | TTTTGAAATC | 1.004 ± 0.0061
34 | TTTTGAAGGT | 0.997 ± 0.0099
35 | TTTTGACACG | 0.959 ± 0.03
36 | TTTTGACAGG | 1.03 ± 0.011
37 | TTTTGACGCG | 1.06 ± 0.052
38 | TTTTGAGAAT | 1.017 ± 0.0015
39 | TTTTGAGCCA | 0.983 ± 0.032
40 | TTTTGAGCGA | 1.07 ± 0.051
41 | TTTTGAGCTT | 1.04 ± 0.081
42 | TTTTGAGGG | 1.07 ± 0.061
43 | TTTTGAGGT | 1.02 ± 0.03
44 | TTTTGAGGTG | 1.06 ± 0.028
45 | TTTTGAGTAT | 0.967 ± 0.035
46 | TTTTGAGTT | 0.986 ± 0.076

Row | Sequence | switch fluorescence ratio
47 | TTTTGAGTTA | 0.976 ± 0.039
48 | TTTTGATATT | 1.01 ± 0.035
49 | TTTTGATCGC | 1.36 ± 0.5
50 | TTTTGATGAG | 0.987 ± 0.021
51 | TTTTGATGGC | 1.01 ± 0.022
52 | TTTTGCACGC | 1.28 ± 0.2
53 | TTTTGCCATG | 1.04 ± 0.067
54 | TTTTGCCTCC | 1.09 ± 0.035
55 | TTTTGCGATC | 1.14 ± 0.021
56 | TTTTGCGCGC | 0.994 ± 0.029
57 | TTTTGCTCGT | 1.14 ± 0.2
58 | TTTTGCTGCA | 0.978 ± 0.013
59 | TTTTGCTGGA | 1.02 ± 0.031
60 | TTTTGCTGGG | 1.03 ± 0.11
61 | TTTTGCTGTT | 0.987 ± 0.033
62 | TTTTGGACTA | 1.05 ± 0.081
63 | TTTTGGCCAA | 1.01 ± 0.041
64 | TTTTGGCGAA | 0.989 ± 0.015
65 | TTTTGGCT | 1.02 ± 0.025
66 | TTTTGGCTCC | 0.99685 ± 0.00035
67 | TTTTGGGCAA | 1.31 ± 0.21
68 | TTTTGGGCAG | 0.971 ± 0.013
69 | TTTTGGGCGG | 0.99 ± 0.022

Row | Sequence | switch fluorescence ratio
70 | TTTTGGGCGT | 1 ± 0.062
71 | TTTTGGGGCA | 1.07 ± 0.13
72 | TTTTGGGGTA | 0.993 ± 0.036
73 | TTTTGGGGTG | 1.05 ± 0.12
74 | TTTTGGGTG | 1.04 ± 0.04
75 | TTTTGGGTGT | 1.02 ± 0.059
76 | TTTTGGTAGT | 1.03 ± 0.063
77 | TTTTGGTCTT | 1 ± 0.028
78 | TTTTGGTTAA | 1.02 ± 0.041
79 | TTTTGGTTGC | 1.02 ± 0.032
80 | TTTTGGTTGG | 0.971 ± 0.028
81 | TTTTGGTTGT | 1.01 ± 0.029
82 | TTTTGGTTTC | 1.05 ± 0.11
83 | TTTTGTAATT | 1.1 ± 0.2
84 | TTTTGTATAA | 1.02 ± 0.02
85 | TTTTGTATTC | 1.05 ± 0.12
86 | TTTTGTCGCA | 0.9913 ± 0.0075
87 | TTTTGTCTGT | 1.01 ± 0.016
88 | TTTTGTGAAA | 0.997 ± 0.036
89 | TTTTGTGCGG | 0.98 ± 0.042
90 | TTTTGTGGAC | 0.996 ± 0.034
91 | TTTTGTGGCA | 0.987 ± 0.014
92 | TTTTGTGGTA | 1.03 ± 0.013

Row | Sequence | switch fluorescence ratio
93 | TTTTGTTAGT | 0.997 ± 0.022
94 | TTTTGTTCCC | 1 ± 0.034
95 | TTTTGTTGCT | 0.956 ± 0.037
96 | TTTTGTTGT | 0.987 ± 0.024
97 | TTTTGTTTCC | 1.01 ± 0.062
98 | TTTTGTTTTG | 1 ± 0.043
99 | TTTTGTTTTT | 1.08 ± 0.44
100 | TTTTTAACAT | 0.993 ± 0.033
101 | TTTTTAACGA | 0.9688 ± 0.009
102 | TTTTTAATAT | 1.04 ± 0.062
103 | TTTTTACCAT | 1.04 ± 0.022
104 | TTTTTACTAA | 1.01 ± 0.011
105 | TTTTTACTCC | 1.48 ± 0.53
106 | TTTTTACTGG | 1 ± 0.03
107 | TTTTTAGAGG | 0.97 ± 0.041
108 | TTTTTAGGTT | 1.04 ± 0.064
109 | TTTTTATATC | 0.99 ± 0.028
110 | TTTTTATCCA | 0.976 ± 0.026
111 | TTTTTATGGC | 0.978 ± 0.028
112 | TTTTTATTCC | 1.02 ± 0.034
113 | TTTTTATTGA | 1 ± 0.034
114 | TTTTTCAAGA | 0.9897 ± 0.0088
115 | TTTTTCAGTT | 1 ± 0.033

Row | Sequence | switch fluorescence ratio
116 | TTTTTCCGGG | 1.1 ± 0.11
117 | TTTTTCCGTT | 1.12 ± 0.27
118 | TTTTTCCTAT | 1.012 ± 0.0071
119 | TTTTTCGATT | 0.982 ± 0.026
120 | TTTTTCGTCT | 1.02 ± 0.028
121 | TTTTTCGTGG | 1.01 ± 0.022
122 | TTTTTCGTTT | 0.997 ± 0.034
123 | TTTTTCTACC | 1.035 ± 0.0091
124 | TTTTTCTAGT | 1.01 ± 0.02
125 | TTTTTCTCCC | 1.03 ± 0.049
126 | TTTTTGAAAC | 1.01 ± 0.027
127 | TTTTTGAAAT | 1.35 ± 0.6
128 | TTTTTGAACG | 1.02 ± 0.018
129 | TTTTTGAAGT | 1.01 ± 0.027
130 | TTTTTGAATG | 0.983 ± 0.032
131 | TTTTTGAATT | 1 ± 0.034
132 | TTTTTGACCT | 1.38 ± 0.24
133 | TTTTTGATAG | 0.9847 ± 0.0057
134 | TTTTTGATGG | 1.02 ± 0.037
135 | TTTTTGCAGT | 1.02 ± 0.082
136 | TTTTTGCATC | 1.2 ± 0.27
137 | TTTTTGCATG | 1.03 ± 0.047
138 | TTTTTGCCAC | 1 ± 0.043

Row | Sequence | switch fluorescence ratio
139 | TTTTTGCGCG | 0.9974 ± 0.0065
140 | TTTTTGCGTT | 0.976 ± 0.037
141 | TTTTTGGACA | 0.993 ± 0.019
142 | TTTTTGGATG | 1.02 ± 0.057
143 | TTTTTGGCCT | 1.05 ± 0.052
144 | TTTTTGGCTT | 1.02 ± 0.093
145 | TTTTTGGGGA | 1 ± 0.025
146 | TTTTTGGTCC | 0.992 ± 0.011
147 | TTTTTGTAGG | 0.995 ± 0.016
148 | TTTTTGTGAA | 0.995 ± 0.033
149 | TTTTTGTGAG | 1.01 ± 0.039
150 | TTTTTGTTTA | 0.971 ± 0.038
151 | TTTTTTAACA | 1.01 ± 0.027
152 | TTTTTTAATC | 1.02 ± 0.03
153 | TTTTTTACAT | 1.01 ± 0.018
154 | TTTTTTACTC | 1 ± 0.039
155 | TTTTTTAGAT | 0.985 ± 0.022
156 | TTTTTTAGGC | 0.962 ± 0.041
157 | TTTTTTATAC | 1.02 ± 0.051
158 | TTTTTTATCC | 1.03 ± 0.089
159 | TTTTTTCCCT | 1.08 ± 0.12
160 | TTTTTTCCG | 1.08 ± 0.1
161 | TTTTTTCGGA | 1.01 ± 0.073

Row | Sequence | switch fluorescence ratio
162 | TTTTTTCT | 0.987 ± 0.02
163 | TTTTTTCTAA | 0.973 ± 0.015
164 | TTTTTTGAAG | 0.997 ± 0.03
165 | TTTTTTGAGC | 0.996 ± 0.031
166 | TTTTTTGATC | 0.999 ± 0.034
167 | TTTTTTGCAT | 1.07 ± 0.19
168 | TTTTTTGCCT | 1.01 ± 0.038
169 | TTTTTTGCGG | 1.08 ± 0.22
170 | TTTTTTGGAA | 1.1 ± 0.16
171 | TTTTTTGGAG | 1.01 ± 0.023
172 | TTTTTTGGCC | 0.993 ± 0.036
173 | TTTTTTGGT | 0.986 ± 0.016
174 | TTTTTTGTCA | 1.02 ± 0.042
175 | TTTTTTTAA | 0.991 ± 0.026
176 | TTTTTTTAAA | 0.999 ± 0.027
177 | TTTTTTTCCG | 1.012 ± 0.0081
178 | TTTTTTTCGA | 1.01 ± 0.022
179 | TTTTTTTCGG | 1 ± 0.027
180 | TTTTTTTGC | 1 ± 0.02
181 | TTTTTTTGCG | 1.02 ± 0.069
182 | TTTTTTTTAA | 1.01 ± 0.045
183 | TTTTTTTTCC | 1.15 ± 0.4
